The values below come from PMC7538418, “Structural basis for the transition from translation initiation to elongation by an 80S-eIF5B complex” (Nature Communications, 2020).

The test deals with T1, eIF5B (residues 396–1002) (S. cerevisiae, UniProt P39730 396-1002).
T1 construct: translation initiation factor eIF5B (GTPase), Saccharomyces cerevisiae, residues 396-1002; also called eIF5B:GTP; eIF5B-GDP; source: prepared and characterized as described [11]
T1 sequence (looked up): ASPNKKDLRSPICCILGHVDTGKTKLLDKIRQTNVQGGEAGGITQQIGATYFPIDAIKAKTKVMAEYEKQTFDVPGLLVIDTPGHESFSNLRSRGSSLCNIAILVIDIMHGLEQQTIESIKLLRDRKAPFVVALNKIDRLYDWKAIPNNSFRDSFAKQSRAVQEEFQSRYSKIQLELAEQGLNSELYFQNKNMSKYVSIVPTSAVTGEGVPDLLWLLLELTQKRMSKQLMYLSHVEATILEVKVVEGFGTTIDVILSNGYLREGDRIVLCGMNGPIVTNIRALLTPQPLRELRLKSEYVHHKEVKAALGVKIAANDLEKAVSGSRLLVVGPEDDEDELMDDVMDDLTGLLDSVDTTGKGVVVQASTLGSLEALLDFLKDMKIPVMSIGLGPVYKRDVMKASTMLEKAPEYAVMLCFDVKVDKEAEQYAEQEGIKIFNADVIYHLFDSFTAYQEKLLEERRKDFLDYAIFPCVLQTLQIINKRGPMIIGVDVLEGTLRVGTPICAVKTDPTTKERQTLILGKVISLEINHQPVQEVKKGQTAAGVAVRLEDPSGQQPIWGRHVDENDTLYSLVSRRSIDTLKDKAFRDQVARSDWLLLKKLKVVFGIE
Description: cryo-EM structure; 48S PICs mixed with eIF5B:GTP and 60S, frozen ~40 s after mixing; 30 mM HEPES-KOH pH 7.5, 100 mM KOAc, 10 mM Mg(OAc)2, 1 mM GTP:Mg2+; grids at 21 °C; uL16 within the 60S subunit. To be noted: both partners purified.

B1: ribosomal protein uL16 (natural protein, S. cerevisiae)
chain: RRPARCYRYQKNKPYPKSRYNRAVPDSKIRIYDLGKKKATVDEFPLCVHLVSNELEQLSSEALEAARICANKYMTTVSGRDAFHLRVRVHPFHVLRINKMLSCAGADRLQQGMRGAWGKPHGLAARVDIGQIIFSVRTKDSNKDVVVEGLRRARYKFPGQQKIILSKKWGFTNLDRPEYLKKREAGEVKDDGAFVKFLSKKGSLENNIREFPEYFA
notes: ribosomal protein uL16, component of the 60S large ribosomal subunit, Saccharomyces cerevisiae; Stood in the assay as a subunit of the whole 60S/80S ribosome, not as an isolated protein; source: in yeast Saccharomyces cerevisiae 60S ribosomal subunits, prepared as described [11]
B1: the binding result is recorded as “binds”.
